Test results reported in a protein production outcome set (Wang et al. 2014).

Assay: label from the status in PepcDB records

MAEELDDLTKFEAKGTSHHLPVGWLALFWGLIVFGAYYYWAYSPALGGWSQAKDLETGGASSGANLLWTIAFTAVPALVAIWMGLTQKKKAR
protein production: failed

MREEQVSDCGSITLEEWNGSSSTKLFKTATITASSSLSIQRSANRFNHVWRRVLQAFVPEASGFPGSVTPDYVGFQLWDTLQGLSTYTKMMLSTQALLSAIGVGEKSATVIGATFQWFLRDFTGMLGGILFTFYQGSNLDSNAKMWRLVADLMNDIAGVASGATRAALTQHFALQDNAADISAKEGSQETMATMMGMSLGMLLARFTSGNPMAIWLSFLSLTVFHMYVLSPEQVSSMEGVLPLWATSLRSTNSKPLHKRVQLGVRVSSLPRLDMLQLLNGVGASSYKNAKYLLAHIKGNVSVILHKDSKPADVLKSYIHAIVLANLMEKSTSFYSEGEAWIDKHYDELLHKVRLNH
protein production: failed

MDSDPLGVFPNSPKYHPYYSQTTEFGGVIDLGLSLRTIQHEIYHSSGQIMTCGKGYCSNEGYRRKWGYVKVTMDGLVVGRKVCVLDHGSYSTLAHQLEDMFGMQSVSGLRLFQMESEFCLVYRDEEGLWRNAGDVPWNEFIESVERLRITRRNDAVLPF
protein production: failed

MAAPLCVKVEFGGGAELLFDGVKKHQVALPGQEEPWDIRNLLVWIKKNLLKERPELFIQGDSVRPGILVLINDADWELLGELDYQLQDQDSILFISTLHGG
protein production: not failed

MIFLVYDILLLLLSPLILIHHAWRTVSRGRSFAGFGERFGCIAPESLARVAGKGPIWVHAVSVGETMAVKPLLRELKRRFPERPLVLSSVTETGRSVAVTIPEADLVVYFPFDFGFAVARALRLVAPSLVIVVETEIWPNFLRHARRTGIPSVMVNGRISDRSFPRYLRFSRFFAPILNNLSALCMQSSEDARRIIAVGAPAERVHVTRNLKYDLPVRSLTPAERQELLCSYRLPAGALIITAGSTHAGEEEVVADIYARLAGERSDLFLVLVPRHPERAVEVGTLLEGKGIPFVRRSALDKVQEQPRGGVLLVDTIGELMKLYALSDVVFVGGSLVPVGGHNLLEPASVGAPVLFGPHMHNFREITALVLGAGAGEQVNDHGELEATLRRLLADEPARRSMGENGIRLMADQGGAAARHLEIIGPLIERGSEVARLEHHHHHH
protein production: not failed

MLEGQLEAGEPKEGTHPEDPCPGAGAAMEKTPAAAEVPREDSNAGEMPSLQQQITSLHQELGRQQSLWADIHRKLQSHMDALRKQNRELREELRGLQRQQWEAGKKPAASPHAGRESHTLALEPAFGKISPLSADEETTPKYAGRKSQSATLLGQRWSSNHLAPPKVTLRAYRL
protein production: failed

MGCVFTNFRLRRSQTPKAKTPMIFEKQDYQQECIYNIITLLDGFDFKRHDALNLKDCLNQFHAACEIPVKNVSGKLNVDVLMETGTGKTFTYLNLIFALHKAYGQNKFIIFVPRKAILESVKQNIRLTKDYFYLEFKRHLKTYTYEGVKSPSNIINHYIKNQDELSVLLLTNSAIDKEGNILNKNSENLFNTKSIFENIADLKPISIIDEPHLLKGEAFGKYFGKIGALYFRFGATFAKEKEHALSNVAFCLDSISAFRNYLVKQIRIHSVMQDAQSPFLLNADSKSAKIAFYKAGILKQITLSKGEDLGKINASFNGVSLVKTAKDKAYLSNGATLEKASYKLAQDEISALLEKAIDLHFEKEAFLFDQNIKALSLFFIPKIEDFRQIDNKGTPFIKTEFERLYKLKRASILARENLSPSYKEYLKRDFDESGNLRVHQGYFSGDSVALNKGKKESKKEDIEANDIKMILSEKEKLLSFQTPLRFIFSVWALQEGWDNPNIFTLIKLANSTSETSRHQQVGRGLRIAINQEGKRVTHGFLKGNDNAFYKINYLDMLVSGEEVGFIEGLQKEIEASSFIGGGNALDREDLAKLGLNEREINKLFVELENSNALEFDETNNAYKIIAPICETMQNNEERIKDFLSDEEYHAVLSAFKMAENPTNKRDQIINANQPQEKVKIRQNLAKEFKELWQTINAQSQLSYQNIQKTKLIESIAKAFNESHVSAEVIKFESKRYDPQTNRIITEQSSTLKIRDYANALQKEINALLLDFAKDERLPLKFTLELYNALNKEHFTNSPKKAFKLLKGIIKDKLHENLLSCVSYGFCQNAFSNTAFDKTDPLYCEDGSPKNEIEKHKIGKYKSAQTPSPNYLYETIIYDSKIEEEVSEEGVQTLEGKSIEVFAKLPKFKIPTPYKNYEPDFAYLLKDEKGAKIFFVCETKGYEKESDIPPDEKRKIEYAKKFFETLSQNLKNAKKEIRVVFATRINKQDLFNTLKNALKETP
protein production: failed

MSIWWLNNTVRVAREKEAVENLATETEWFVLDRWEIHDYKFAAIGSIVAHGATYPIRLVYPDNFPLVPAWVEPQDPEAKWSYHQYGKGGALCLELRPDNWTSRANGADVLRSAYGLLNLENPLGDGEKGKVTSAHNVGEIQKYNWGESPVFIGQECLTRLLSGDIQDVNALRWSASDKVWPIFLSDAVDRQGVQRPPSADLNTWRLHVPVALVSGKVPDGLPSERSTFISTLWESSPVEGEVNFVTVFIEDDGINVFHVLSDNAYHRKVYVLPPETGLRSGRAPSAQAKKVAVVGAGSVGSKVAEMLLRSGIDTLRIFDGDVFLPGNLERHVLDWRDVGYHKVHGLKRRLLHIVPGADIMTIDQNLNWQKSARTNALHFDLITACDIIVDASGDPATSMLLGALAFENKKPFVSVEVFEGGIGALVAPSVPERNAAYTLGREALLNWTDEKGRVVPLSAGDRAYEAISDDGDIIVADDAAISMAASHAARVVLDILDDKLDDFRWLLIGFRKEWAFDMHGHVIALDVGGPSEWNNNTEDADAQKFVIEIAGELLDVLKAFTQ
protein production: failed

MKPIQLPLSVRLRDDATFANYYPGANAAALGYVERLCEAEAGWAESLIYLWGHDGVGRSHLLQAACLRFEQFEERTIYLPMADLVQYGPEIFDDLEQCELVCIDDLDVLVGKREWEEGLFHLFNRLRDTGRRLLLAASKSPRELQVKLPDLKSRLTMALIFQLHGLSDEDKLRALQLRASRRGLHLTDEVGRFILNRGSRSMNSLFDLLEQLDRASLQAQRKLTIPFLKETLGWLEHHHHHH
protein production: not failed

MYLTVTPLSIVALTTAPPYFDTNGSISVPPPPNVIRSGLYESITLEYHKYTIKYCLTLITQTILFFLIVVCSMKVVIFGGTGLIGRAIYSSLPHDFYIVSRSAKGQEGQAHIIGLDEIDKIKECDVVINLSGYSIASKRWNRKVKEEIVRSRIDTTRLVVNFIRNLEKKPSAFLSGSAIGFYGHNTNKELTEEDPFGSGFLADLARSWEEEAMQADGICRTVLLRTANFLSPKGGFLSALINPKSKNVMYFGDGRQPVSWMHYADYVKAVEFVIENASIAGPVNMSSPQPVTFKEFAEAFSKSLGSHIRSIPEFLGKIALGSEMYRELMSGQKVIPKKLIQAGFKFDFPDINTAASSIASLMK
protein production: failed

MKLIQMSDHIYKLNIQTTVGIPIQINTWFIVNDNDVYIIDTGMDDYAELQITIAKSLGNPKGIFLTHGHLDHINGAKRISEALKIPIFTYKNELPYINGELPYPNKTHTENTGVQYIVKPLETNTNLPFNYYLTPGHAPGHVIYFHNQDKILICGDLFISDAQHLHIPIKKFTYNMTENIKSGQIIDNLCPKLITTSHGDDLYYSDDIYSIYKFKYEELEHHHHHH
protein production: failed

VGQRSDSDHVMAEATTDKRQGHTRGRTGNDRRTQIIKVATELFREKGYYATSLDDIADRIGFTKPAIYYYFKSKEDVLFAIVNSIVDEALERFHAIAAGPGSPGERIHALLVEHTRTILRNLDANTLFYNERGLLSPEREREMRKREREYTEIMQRLYAEGVATGELLDVDPTVATATLLGAAIWTYRWYDPEGRLSADEVVEQITRLLLNGYRRPA
protein production: not failed

MKVFTEKIPNIPWEERPEGYTGPVWRYSKNPIIGRNPVPKGARVFNSAVVPYNGEFVGVFRIDHKNTRPFLHFGRSKDGINWEIEPEEIQWVDVNGEPFQPSYAYDPRVVKIEDTYYITFCTDDHGPTIGVGMTKDFKTFVRLPNAYVPFNRNGVLFPRKINGKYVMLNRPSDNGHTPFGDIFLSESPDMIHWGNHRFVLGRSSYNWWENLKIGAGPYPIETSEGWLLIYHGVTLTCNGYVYSFGAALLDLDDPSKVLYRSRYYLLTPEEEYETVGFVPNVVFPCAALCDADTGRVAIYYGAADTHVALAFGYIDEIVDFVKRNSM
protein production: not failed

MWSCPTLNAPRAAQKWLPVRATPHLCVLHMSRLMLSSTLIDELSYVRKDQLETSALFELIAHRYERHSIAITANEPFSGWSDAMTVAAIDRLVHHSTIIEMNGESYRKRAAVARGASTQNANDEPEDPPNRSSLEHHHHHH
protein production: failed

MKRRYSILIILLVAIFYRMITFRFKYLLGYDPYFHLAYIEEVNKVGKWINFLTFAGGPWGYQVKLFHPLGLWMTPLYLYKLLKVFGVSLTTTFKITPVIFGVLTVIFLYLSLLKLYDEKRAFFGGFFLAISYGHVFRSMANYYRGDNYMLFWYSVALLGISLALGIKKGKWKYKRLIFYTLPVLASGFSAIFWQAYYPIFAFLLSNALLLAVGAFILKKDKYLLDSIILILSTAFGVLLANYLGGIFGYGMLGYAKWLGKSVAKKLGLEFGYLKDVYLILHLKYLVPISLSFVLVLILLGFLTKDIRIRSLFLGIASFIGIIILFKRFEALKELSTGFGIFKEAPILETQPTSFKDLWAAFSLSFFLTPLFFIRFKKPRVEDFLTLGLIIPSVYMLKTWTRFLFIGSMAIAIMSGIGIVELYEAIKPRLNGKKALATGIITLVILPGVIAGLSFKEVCSLHPEMNEAWERALKWLKNNSNENDVILAWWDWGHFITYYARRSPIAQGGPSVGVALYLLGKLNENWAINLGVDYVIVSYYDFLKFGAILSTANLSKRYNIRGYGLVVLPLRASTGALIFENRGYRAIVRHDKSWNAVIIYNGQMIYPRKLYVEHKEGVQEIKPPESNSNTYLYVNLNYGYAIFMNGNAFNTTLVRLFITPEKPYKLVYSDGGLIKIFKLEHPNVKVERRESNVILNFENGTSLGLYFFLDNGTMVLSKWYNVKGKNEFIVPKVNASVARYVLKRGKKVVDRGVFRLSYN
protein production: failed

MKFVKIALIVAVVAIALFAAKQTGILEIITDIKSLQDWIASFGVWGYAVFVAAFVFACVFLLPGSAFTIVAGIVFGPIKGGILALFSATLGAVAAFIVARFLLRNTIMKKFGDNPIFKKIDDGVAANGTSFLILTRLVPVFPFSLQNYAYGLTSLNLGTYALVSLLTMAPGAFIFAYMAGDIATNGVSVMLLVKFAVAGLVLFGMSLIPKYIAKKKGINMEELAK
protein production: failed

MLEGVARPSLLRRLSCAPGMPAPVRRLAERIEGSHLATRLAEGAFWSFAGSALSRAFALAASVVTARFLGKAQYGELGVLLSTLLTFQAFASLGLGMTATKYVSELRTKDPERAGRILGMSAVLSAATGVLAAALLWAFAPWLASSTIGAPHLTEPLRIAGLGLVFTTMGGAQTGALAGFEAFRTQTQLNVWLGLLGVPIAVVGVWRWGLQGAVWATVVTAALQWALTHVAVRVHARRDRVPVSPRGWWREQRILWTFSLPALAQGVMVGPVSWAAAAILVNQPGGYPEMGAFSAANQWYAAVLFLPNALCGPVLPVLSERVGRGDGPGVRAVLRAAVAMNAAAVIPIVAAGCLASPWLVRIYGPQFADAWPTFAVVLITAGIVAITNPVGYVLAASERLWLGFLMNSGWAAAFLVATVLLVGWGSLGLATGRLLAYALHFGWTLWFAMRFVRAGAARGT
protein production: failed

ASDSAFTYNGVSITRPTNEVNDVISGVNITLEQTTEPNKPAIISVSRDNQAIIDSLTEFVKAYNELIPKLDEDTRYDADTKIAGIFNGVGDIRAIRSSLNNVFSYSVHTDNGVESLMKYGLSLDDKGVMSLDEAKLSSALNSNPKATQDFFYGSDSKDMGGREIHQEGIFSKFNQVIANLIDGGNAKLKIYEDSLDRDAKSLTKDKENAQELLKTRYNIMADVLPLMIAKSLKPIKNSIPCK
protein production: failed

MFDVAVFGSLFLTLFVIMDPPGITPIFLALTAGRPAKVQKRMAFQAVCVAGGVITVFGLLGHQILDYLHVSVPALMIAGGLLLLLIALDLLTGKTDEPKQTKDVNVALVPLGMPLLAGPGAIVSVILAVQKAGSVATQVSVWAAILAIHVVLWVVMRYSLLIIRVIKDGGVVLVTRLAGMMLSAIAVQQIINGVTQVIRGS
protein production: failed
